Reference: doi:10.64898/2025.12.30.697032

Biological target: cauliflower mitoribosome small subunit (cauliflower (B. oleracea))
Assay: cryo-EM structure; in vitro reconstitution (first reaction): 2.7 ug/uL mtSSU, 500 nM rps3 mRNA (51 nt), 500 nM mtIF3, 2 min at 37 °C, then 10 min on ice; Initiation buffer (20 mM HEPES-KOH pH 7.6, 75 mM KCl, 40 mM MgCl2); gives mtPIC-1 and mtPIC-2

- percent of mtSSU particles accommodating mtIF3: 70%
B1: Arabidopsis mitochondrial initiation factor 3 (natural protein)
chain: MAIWRIINRSYLKYASNQLTRNYYTQVCLASSTHVVKQTTKLSSFDIPNSDICTRPSNIFQNLRFLATSAQTRKKEAEVDSDGPRLNEKITGDYVRLVSEEGHCVVSLREALRRAKELQCDLVEVQRDAKPPVCKIVKYSLELYKKAKVGKERAKAKRAEAIRPDIKEIRFTPKIEAKDLKFKSDQALKLMESGYRVKCLAVPDKDKHKELEPEKLLELLFRFTCFIGDALVESWPEADRKGAVVIVRHAKFGPPKKGGVKLMKDIDIKSARVKEESPKPDSSKAGVATVDDQEDIEKSEPRFSVEQAQPVKFQNAYAKREPSSEFSGGRDASRFEPQSPNQHVNPQRPRFSNQAPNQQPTGRFDPQSPNQPPSAPRPQFPNQQPTGRFDPQFPSQPPRPQFPNQAPNQQSTGRFNPQFPNQRPSPPQSRFPDQAPNQQPSGPSPNRHPDRQGPPPRFQNQAPNQQPTGRFEPQPPNPPRAPPRPQTRLPNETSNEQPTAPGRSSGPASGYGIFSTPKTK
